Laboratory results taken from publication PMC6523629.

Target: tropomyosin receptors kinase A (TrkA) (rat (endogenous in PC12)) (UniProt P35739)
UniProt P35739, sequence (P35739 33-799): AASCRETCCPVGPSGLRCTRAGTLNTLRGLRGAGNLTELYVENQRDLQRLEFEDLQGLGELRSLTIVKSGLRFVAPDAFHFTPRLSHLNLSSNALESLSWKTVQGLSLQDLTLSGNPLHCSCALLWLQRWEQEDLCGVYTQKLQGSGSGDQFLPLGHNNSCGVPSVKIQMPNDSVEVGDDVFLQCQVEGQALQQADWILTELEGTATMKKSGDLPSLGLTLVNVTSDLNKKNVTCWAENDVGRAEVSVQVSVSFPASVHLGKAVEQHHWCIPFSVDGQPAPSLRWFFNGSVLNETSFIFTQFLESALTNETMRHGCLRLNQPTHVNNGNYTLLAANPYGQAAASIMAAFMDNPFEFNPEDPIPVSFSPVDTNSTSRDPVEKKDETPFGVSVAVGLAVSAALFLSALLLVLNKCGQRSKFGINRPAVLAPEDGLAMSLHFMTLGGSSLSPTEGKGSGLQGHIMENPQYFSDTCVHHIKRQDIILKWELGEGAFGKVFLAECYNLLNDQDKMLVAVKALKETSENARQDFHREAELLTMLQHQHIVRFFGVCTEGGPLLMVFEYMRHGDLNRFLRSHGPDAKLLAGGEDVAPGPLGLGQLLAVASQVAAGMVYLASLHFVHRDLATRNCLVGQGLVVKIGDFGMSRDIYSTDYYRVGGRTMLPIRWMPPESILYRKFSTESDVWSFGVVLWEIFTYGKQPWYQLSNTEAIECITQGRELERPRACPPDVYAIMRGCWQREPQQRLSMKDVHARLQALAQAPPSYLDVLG

phosphorylation of TrkA (Tyr-490), Western blot, PC12 cells, 50 uM peptide with 1 uM CuSO4, 10 min, % of the untreated control [%]	phosphorylation of TrkA (Tyr-490), Western blot, PC12 cells, 50 uM peptide, 10 min, % of the untreated control [%]	Substance
825	540	NGF(1-14) (peptide)
1020	653	d-NGF(1-15) (peptide)
